Among the data in PMC2925043 are Kd and KD of the high-affinity site (fit with two independent classes of site) values, retold here.

Test [1] deals with Drosophila EGFR extracellular region lacking domain V (s-dEGFRΔV) (Drosophila melanogaster) (UniProt P04412).
Test [2] has as its target dimerization-defective s-dEGFR variant (s-dEGFR^dim-arm), biotinylated (Drosophila melanogaster) (UniProt P04412). Briefly: fluorescent ligand binding assay on plates.
Test [3] deals with Drosophila EGFR extracellular region (s-dEGFR) with C-terminal His tag and AviTag, biotinylated (Drosophila melanogaster) (UniProt P04412). Briefly: fluorescent ligand binding assay on plates.
Test [4] has as its target EGFR (low-affinity site) (Homo sapiens) (UniProt P00533). The following applies: cited from earlier work.
Test [5] concerns the target EGFR (high-affinity site) (Homo sapiens) (UniProt P00533). The conditions noted are these: cited from earlier work.

Turning to “EGF-like domain of Spitz (SpitzEGF, residues 48-105) (ligand)”, the dissociation constant Kd in test [1] amounted to 368 nM.

As for “Spitz_(EGFΔC), variant of SpitzEGF with a C-terminal truncation of six amino acids (ligand)”, the Kd in test [1] turned out to be 4370 nM.

With “SpitzEGF labeled with Alexa Fluor-488 (ligand)”, the dissociation constant Kd in test [2] is 920 nM; in test [3], 49.5 nM. This substance also gave a KD of the high-affinity site (fit with two independent classes of site) in test [3] of 4.7 nM.

As to EGF (from UniProt P01133), the Kd in test [4] is 2 nM; in test [5], 0.3 nM.
